Reference: the RNAGym collection of RNA variant scans (doi:10.7554/elife.90254)

B1: LINE1-full (parent)
chain: UACGUAGGUGGUUUUCCCCUGAUAGUGCUAAGGGGGCCUGGAAGUUUGGACUGGGCAGAGCUCAACACAGCGUGGCAAAGUGGCUGUGGCUAGACUGCCUCUCUGGAUUCCUCGUCACUCAGCAGGGCAUCUCUGAGAGAAAUGCC

Variants of: B1
Test: self-cleavage, relative activity (ratio to wild type); higher = more cleavage; in vitro, sequencing; the parent is a self-cleaving ribozyme

Row | Variant | self-cleavage
1 | UACGUAGGUGGUUUUCCCCUGAUAGUGCUAAGGGGGCCUGGAAGUUUGGACUGGGCAGAGCUCAACACAGCGUGGCUAAGUGGCUGUGGCUAGACUGCCUCUCUGGAUUCCUCGUCACUCAGCAGGGCAUCUCUGGGAGAAAUGCC [A77U A136G] | 1.19
2 | UACGUAGGUGGUUUUCCCCUGAUAGUGCUAAGGGGGCCUGGAAGUUUGGACUGGGCAGAGCUCAACACAGCGUGGCUAAGUGGCUGUGGCUAGACUGCCUCUCUGGAUUCCUCGUCACUCAGCAGGGCAUCUCUGCGAGAAAUGCC [A77U A136C] | 1.67
3 | UACGUAGGUGGUUUUCCCCUGAUAGUGCUAAGGGGGCCUGGAAGUUUGGACUGGGCAGAGCUCAACACAGCGUGGCUAAGUGGCUGUGGCUAGACUGCCUCUCUGGAUUCCUCGUCACUCAGCAGGGCAUCUCUGAGAGAAGUGCC [A77U A142G] | 1.46
4 | UACGUAGGUGGUUUUCCCCUGAUAGUGCUAAGGGGGCCUGGAAGUUUGGACUGGGCAGAGCUCAACACAGCGUGGCUAUGUGGCUGUGGCUAGACUGCCUCUCUGGAUUCCUCGUCACUCAGCAGGGCAUCUCUGAGAGAAAUGCC [A77U A79U] | 1.89
5 | UACGUAGGUGGUUUUCCCCUGAUAGUGCUAAGGGGGCCUGGAAGUUUGGACUGGGCAGAGCUCAACACAGCGUGGCUAAGUGGUUGUGGCUAGACUGCCUCUCUGGAUUCCUCGUCACUCAGCAGGGCAUCUCUGAGAGAAAUGCC [A77U C84U] | 0.08
6 | UACGUAGGUGGUUUUCCCCUGAUAGUGCUAAGGGGGCCUGGAAGUUUGGACUGGGCAGAGCUCAACACAGCGUGGCUAAGUGGCUGUGGCUAGACUGCCUCUCUGGAUUCCUCGACACUCAGCAGGGCAUCUCUGAGAGAAAUGCC [A77U U115A] | 0.82
7 | UACGUAGGUGGUUUUCCCCUGAUAGUGCUAAGGGGGCCUGGAAGUUUGGACUGGGCAGAGCUCAACACAGCGUGGCUAAGUGGCUGUGGCUAGACUGCCUCUCUGGCUUCCUCGUCACUCAGCAGGGCAUCUCUGAGAGAAAUGCC [A77U A107C] | 1.21
8 | UACGUAGGUGGUUUUCCCCUGAUAGUGCUAAGGGGGCCUGGAAGUUUGGACUGGGCAGAGCUCAACACAGCGUGGCUAAGUGGCUGUGGCUAGACUGCCUCUCUGGGUUCCUCGUCACUCAGCAGGGCAUCUCUGAGAGAAAUGCC [A77U A107G] | 1.29
9 | UACGUAGGUGGUUUUCCCCUGAUAGUGCUAAGGGGGCCUGGAAGUUUGGACUGGGCAGAGCUCAACACAGCGUGGCUAAGUGGCUGUGGCUAGACUGCCUCUCUGGAUGCCUCGUCACUCAGCAGGGCAUCUCUGAGAGAAAUGCC [A77U U109G] | 0.61
10 | UACGUAGGUGGUUUUCCCCUGAUAGUGCUAAGGGGGCCUGGAAGUUUGGACUGGGCAGAGCUCAACACAGCGUGGCUAAGUGGCUGUGGCUAGACUGCCUCUCUGGAUACCUCGUCACUCAGCAGGGCAUCUCUGAGAGAAAUGCC [A77U U109A] | 1.68
11 | UACGUAGGUGGUUUUCCCCUGAUAGUGCUAAGGGGGCCUGGAAGUUUGGACUGGGCAGAGCUCAACACAGCGUGGCUAAGUGGCUGUGGCUAGUCUGCCUCUCUGGAUUCCUCGUCACUCAGCAGGGCAUCUCUGAGAGAAAUGCC [A77U A94U] | 0.2
12 | UACGUAGGUGGUUUUCCCCUGAUAGUGCUAAGGGGGCCUGGAAGUUUGGACUGGGCAGAGCUCAACACAGCGUGGCUAAGUGGCUGUGGCUAGACUGCCUCUCUGGACUCCUCGUCACUCAGCAGGGCAUCUCUGAGAGAAAUGCC [A77U U108C] | 1.57
13 | UACGUAGGUGGUUUUCCCCUGAUAGUGCUAAGGGGGCCUGGAAGUUUGGACUGGGCAGAGCUCAACACAGCGUGGCUAAGUGGCUGUGGCUAGACUGCCUCUCAGGAUUCCUCGUCACUCAGCAGGGCAUCUCUGAGAGAAAUGCC [A77U U104A] | 0.58
14 | UACGUAGGUGGUUUUCCCCUGAUAGUGCUAAGGGGGCCUGGAAGUUUGGACUGGGCAGAGCUCAACACAGCGUGGCUAAGUGGCUGUGGCUAGACUGCCUCUCUGGAUUCCUAGUCACUCAGCAGGGCAUCUCUGAGAGAAAUGCC [A77U C113A] | 0.92
15 | UACGUAGGUGGUUUUCCCCUGAUAGUGCUAAGGGGGCCUGGAAGUUUGGACUGGGCAGAGCUCAACACAGCGUGGCUAAGUGGCUGUGGCUAGACUUCCUCUCUGGAUUCCUCGUCACUCAGCAGGGCAUCUCUGAGAGAAAUGCC [A77U G97U] | 0.09
16 | UACGUAGGUGGUUUUCCCCUGAUAGUGCUAAGGGGGCCUGGAAGUUUGGACUGGGCAGAGCUCAACACAGCGUGGCUAAGUGGCUGUGGCUAGACUACCUCUCUGGAUUCCUCGUCACUCAGCAGGGCAUCUCUGAGAGAAAUGCC [A77U G97A] | 0.07
17 | UACGUAGGUGGUUUUCCCCUGAUAGUGCUAAGGGGGCCUGGAAGUUUGGACUGGGCAGAGCUCAACACAGCGUGGCUAAGCGGCUGUGGCUAGACUGCCUCUCUGGAUUCCUCGUCACUCAGCAGGGCAUCUCUGAGAGAAAUGCC [A77U U81C] | 1.47
18 | UACGUAGGUGGUUUUCCCCUGAUAGUGCUAAGGGGGCCUGGAAGUUUGGACUGGGCAGAGCUCAACACAGCGUGGCUAAGUGGCUGUGGUUAGACUGCCUCUCUGGAUUCCUCGUCACUCAGCAGGGCAUCUCUGAGAGAAAUGCC [A77U C90U] | 0.03
19 | UACGUAGGUGGUUUUCCCCUGAUAGUGCUAAGGGGGCCUGGAAGUUUGGACUGGGCAGAGCUCAACACAGCGUGGCUAAGUGGCUGUGGCUAGACUGCCUCUCUGGAUUCCUCGUCACUCAGCGGGGCAUCUCUGAGAGAAAUGCC [A77U A124G] | 0.79
20 | UACGUAGGUGGUUUUCCCCUGAUAGUGCUAAGGGGGCCUGGAAGUUUGGACUGGGCAGAGCUCAACACAGCGUGGCUAAGUGGCAGUGGCUAGACUGCCUCUCUGGAUUCCUCGUCACUCAGCAGGGCAUCUCUGAGAGAAAUGCC [A77U U85A] | 0.07

Row | Variant | self-cleavage
21 | UACGUAGGUGGUUUUCCCCUGAUAGUGCUAAGGGGGCCUGGAAGUUUGGACUGGGCAGAGCUCAACACAGCGUGGCUAAGUGGCUGUGGCUAGACUGCCUCUCUGGAUUCCUCGUCACUCAGCAGGGCAUCUCUGAGAGACAUGCC [A77U A141C] | 1.32
22 | UACGUAGGUGGUUUUCCCCUGAUAGUGCUAAGGGGGCCUGGAAGUUUGGACUGGGCAGAGCUCAACACAGCGUGGCUAAGUGGCUGUGGCUAGACUGCCUCUCUGGAUUCCUCGUCACUCAGCAGGGCAUCUCUGAGAGAUAUGCC [A77U A141U] | 1.07
23 | UACGUAGGUGGUUUUCCCCUGAUAGUGCUAAGGGGGCCUGGAAGUUUGGACUGGGCAGAGCUCAACACAGCGUGGCUAAGUGGCUGUGGCUAGACUGCCUCUCUGGAUUCCUCGUCACUCAGCAGGGCAUCUCUGAGAGAGAUGCC [A77U A141G] | 1.4
24 | UACGUAGGUGGUUUUCCCCUGAUAGUGCUAAGGGGGCCUGGAAGUUUGGACUGGGCAGAGCUCAACACAGCGUGGCUAAGUGGCUGUGGCUAGACUGCCUCUCUGGAUUCCUCAUCACUCAGCAGGGCAUCUCUGAGAGAAAUGCC [A77U G114A] | 1.65
25 | UACGUAGGUGGUUUUCCCCUGAUAGUGCUAAGGGGGCCUGGAAGUUUGGACUGGGCAGAGCUCAACACAGCGUGGCUAAGUGGCUGUGGCUAGACUGCCACUCUGGAUUCCUCGUCACUCAGCAGGGCAUCUCUGAGAGAAAUGCC [A77U U100A] | 0.91
26 | UACGUAGGUGGUUUUCCCCUGAUAGUGCUAAGGGGGCCUGGAAGUUUGGACUGGGCAGAGCUCAACACAGCGUGGCUAAGUGGCUGUGGCUAGACUGCCCCUCUGGAUUCCUCGUCACUCAGCAGGGCAUCUCUGAGAGAAAUGCC [A77U U100C] | 1.58
27 | UACGUAGGUGGUUUUCCCCUGAUAGUGCUAAGGGGGCCUGGAAGUUUGGACUGGGCAGAGCUCAACACAGCGUGGCUAAGUGGCUGUGGCUAGACAGCCUCUCUGGAUUCCUCGUCACUCAGCAGGGCAUCUCUGAGAGAAAUGCC [A77U U96A] | 0.06
28 | UACGUAGGUGGUUUUCCCCUGAUAGUGCUAAGGGGGCCUGGAAGUUUGGACUGGGCAGAGCUCAACACAGCGUGGCUAAGUGGCUGUGGCUAGACUGCCUCUCUGGAUUCCCCGUCACUCAGCAGGGCAUCUCUGAGAGAAAUGCC [A77U U112C] | 1.29
29 | UACGUAGGUGGUUUUCCCCUGAUAGUGCUAAGGGGGCCUGGAAGUUUGGACUGGGCAGAGCUCAACACAGCGUGGCUAAGUGGCUGUGGCUAGACUGCCUCUCUGGAUUCCUCGUCACUCAGCAGAGCAUCUCUGAGAGAAAUGCC [A77U G126A] | 1.46
30 | UACGUAGGUGGUUUUCCCCUGAUAGUGCUAAGGGGGCCUGGAAGUUUGGACUGGGCAGAGCUCAACACAGCGUGGCGAAGUGGCUGUGGCUAGACUGCCUCUCUGGAUUCCUCGUCACUCAGCAGGGCAUCUCUGAGAGAAAGGCC [A77G U143G] | 2.99
31 | UACGUAGGUGGUUUUCCCCUGAUAGUGCUAAGGGGGCCUGGAAGUUUGGACUGGGCAGAGCUCAACACAGCGUGGCUAAGUGGCUGUGGCUAGACUGCCUCUCUGGAUUCCUCGUCACUCAGCAGGGCAUCUCUGAGAGAAAUGCA [A77U C146A] | 1.23
32 | UACGUAGGUGGUUUUCCCCUGAUAGUGCUAAGGGGGCCUGGAAGUUUGGACUGGGCAGAGCUCAACACAGCGUGGCUAAGUGGCUGUGGCUAGACUGCCUCUCUGGAUUCCUCGUCACUCUGCAGGGCAUCUCUGAGAGAAAUGCC [A77U A121U] | 1.27
33 | UACGUAGGUGGUUUUCCCCUGAUAGUGCUAAGGGGGCCUGGAAGUUUGGACUGGGCAGAGCUCAACACAGCGUGGCUAAGUGACUGUGGCUAGACUGCCUCUCUGGAUUCCUCGUCACUCAGCAGGGCAUCUCUGAGAGAAAUGCC [A77U G83A] | 0.74
34 | UACGUAGGUGGUUUUCCCCUGAUAGUGCUAAGGGGGCCUGGAAGUUUGGACUGGGCAGAGCUCAACACAGCGUGGCUAAGUGGCUGUGGCUAAACUGCCUCUCUGGAUUCCUCGUCACUCAGCAGGGCAUCUCUGAGAGAAAUGCC [A77U G93A] | 0.02
35 | UACGUAGGUGGUUUUCCCCUGAUAGUGCUAAGGGGGCCUGGAAGUUUGGACUGGGCAGAGCUCAACACAGCGUGGCUAAGUGGCUGUGGCUAGACUGCCUCUCUGGAUUCCUCGUCACUCAGCAGGGCGUCUCUGAGAGAAAUGCC [A77U A129G] | 1.45
36 | UACGUAGGUGGUUUUCCCCUGAUAGUGCUAAGGGGGCCUGGAAGUUUGGACUGGGCAGAGCUCAACACAGCGUGGCUAAGUGGCUGUGGCUAGACUGCCUCUCUGGAUUCCUCGUCACUCAGCAGGGCCUCUCUGAGAGAAAUGCC [A77U A129C] | 1.28
37 | UACGUAGGUGGUUUUCCCCUGAUAGUGCUAAGGGGGCCUGGAAGUUUGGACUGGGCAGAGCUCAACACAGCGUGGCUAAGUGGCUGUGGCUAGACUGCCUCUCUGGAUUCCUCGUCCCUCAGCAGGGCAUCUCUGAGAGAAAUGCC [A77U A117C] | 1.76
38 | UACGUAGGUGGUUUUCCCCUGAUAGUGCUAAGGGGGCCUGGAAGUUUGGACUGGGCAGAGCUCAACACAGCGUGGCUAAGUGGCUGUGGCUAGACUGCCUCUCUGGAUUCCUCGUCUCUCAGCAGGGCAUCUCUGAGAGAAAUGCC [A77U A117U] | 1.21
39 | UACGUAGGUGGUUUUCCCCUGAUAGUGCUAAGGGGGCCUGGAAGUUUGGACUGGGCAGAGCUCAACACAGCGUGGCUAAGUGGCUGUGGCUAGACUGCCUCUCUGGAUUCCUCGUCGCUCAGCAGGGCAUCUCUGAGAGAAAUGCC [A77U A117G] | 1.6
